Article PMC9092428, “Towards identification of protein–protein interaction stabilizers via inhibitory peptide-fragment hybrids using templated fragment ligation” (RSC Chemical Biology, 2022)
One block for each molecule: values may come before it. Square brackets hold non-standard residues; d marks the D form. Ends that are not written are not given here. Peptide text beside a SMILES is read from it. hydrazide = C-terminal Gly-hydrazide; hydrazone‑SIG17 = not defined here; hydrazone‑FC45 = not defined here; pS = N[C@@H](COP(=O)(O)O)C(=O)O; Ahx = NCCCCCC(=O)O

Legend:
[1] = target: T1, 14-3-3η (Homo sapiens, UniProt Q04917); assay: Fluorescence anisotropy (FA) competition assay against tracer hDMX361–374^pSer367*; type: binding; details: 50 nM hDMX361–374^pSer367*
T1 construct: full length proteins were concentrated by centrifugation; His tag (pProEx HTb vector) (N); made in house; host or cells: E. coli BL21(DE3)
T1 sequence (Q04917 1-246): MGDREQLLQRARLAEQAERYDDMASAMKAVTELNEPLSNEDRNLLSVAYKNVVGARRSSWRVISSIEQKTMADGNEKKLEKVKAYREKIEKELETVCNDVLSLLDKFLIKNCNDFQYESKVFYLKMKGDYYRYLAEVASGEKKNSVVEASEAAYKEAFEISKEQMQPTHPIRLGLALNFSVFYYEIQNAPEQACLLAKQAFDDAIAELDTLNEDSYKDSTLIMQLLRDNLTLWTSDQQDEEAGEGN
Method: A fluorescence anisotropy (FA) competition assay was subsequently carried out using conditions previously found suitable for acylhydrazone formation (pH 6.5, 50 mM NH4OAc, 10 mM aniline) with added DTT (1 mM) to supress disulfide formation. hDMX361–369^pSer367Gly-hydrazide was used to compete with a tracer peptide: hDMX361–374^pSer367* for binding to 14-3-3η (Fig S2, ESI ^†). […] Initial attempts to screen in cocktails, established the aldehydes had no affect on their own (Fig. S3, ESI ^†). We then performed an assay where each aldehyde was screened individually with hDMX361–369^pSer367Gly-hydrazide. A decrease in anisotropy can be attributed to a particular hydrazone product, avoiding the additional step of product identification e.g. by HRMS, and, combines the equilibration step for hydrazone formation with 14-3-3η screening (Fig. 2a). […] To confirm the single-concentration results, a competition assay was performed (Fig. 2b). hDMX361–369^pSer367Gly-hydrazide was equilibrated with 5 equivalents of each aldehyde (product formation confirmed by LC-MS, see Fig. S4, ESI ^†), and serially diluted against the tracer peptide (hDMX361–374^pSer367*) and 14-3-3η protein.
Fig. 2 Dynamic ligation screening based on hDMX361–369^pSer367Gly-hydrazide (a) Anisotropy values of individually screened hydrazones (relative to buffer, zero activity negative control in grey), hDMX361–374^pSer367 (blue) and hDMX361–369^pSer367Gly-hydrazide (red) as positive controls with hits (hDMX361–369^pSer367Gly-hydrazone-FC45 and hDMX361–369^pSer367Gly-hydrazone-SIG17) highlighted in orange boxes (10 μM acetylated hydrazide peptide mixed with 5 eq. of aldehyde, 1 μM 14-3-3η, 50 nM hDMX361–374^pSer367*, 50 mM NH4OAc, 10 mM aniline and 1 mM DTT) (b) competition FA curves for hydrazones taken forward as hits (50 nM hDMX361–374^pSer367*, 1 μM 14-3-3η in 50 mM NH4OAc, 10 mM aniline and 1 mM DTT).
Fig. 3 Dynamic ligation screening based on hDMX361–370^pSer367Gly-hydrazide (a) anisotropy values of individually screened hydrazones (relative to buffer, zero activity negative control in grey), hDMX361–374^pSer367 (blue) and hDMX361–370^pSer367Gly-hydrazide (red) as positive controls with hits highlighted in black boxes (10 μM acetylated hydrazide peptide mixed with 5 eq. of aldehyde, 1 μM 14-3-3η, 50 nM hDMX361–374^pSer367*, 50 mM NH4OAc, 10 mM aniline and 1 mM DTT) (b) representative competition FA curves for hydrazones taken forwards as hits (50 nM hDMX361–374^pSer367*, 1 μM 14-3-3η in 50 mM NH4OAc, 10 mM aniline and 1 mM DTT). […]
Screening was performed using fluorescence anisotropy competition assay, in 50 mM NH4Ac pH 6.5 buffer containing 10 mM aniline, 1 mM DTT. […]

[2] = target: T2, hDMX361–370pSer367Gly* 361-370 (Homo sapiens, UniProt O15151, also: FAM-Ahx, end not given here); assay: fluorescence anisotropy
T2 chain: {FAM-Ahx}-DCRRTI[pS]APVG

[3] = target: T3, hDMX361–369pSer367Gly-hydrazone-SIG17 361-369 (Homo sapiens, UniProt O15151, reading uncertain; also: printed as hDMX361–369pSer367Gly-hydrazone-SIG17 361-369); assay: fluorescence anisotropy competition
T3 chain: DCRRTI[pS]APG-{hydrazone‑SIG17}

[4] = target: T4, hDMX361–369pSer367Gly-hydrazone-FC45 361-369 (Homo sapiens, UniProt O15151, reading uncertain; also: printed as hDMX361–369pSer367Gly-hydrazone-FC45 361-369); assay: fluorescence anisotropy competition
T4 chain: DCRRTI[pS]APG-{hydrazone‑FC45}

[5] = target: T5, hDMX361–369pSer367Gly-hydrazide 361-369 (Homo sapiens, UniProt O15151); assay: fluorescence anisotropy competition
T5 chain: DCRRTI[pS]APG-hydrazide

[6] = target: T6, hDMX361–374pSer367 361-374 (Homo sapiens, UniProt O15151); assay: fluorescence anisotropy competition
T6 chain: DCRRTI[pS]APVVRPK

[7] = Fig. 2b experiment, hydrazide equilibrated with 5 eq. aldehyde, serially diluted, 1 μM 14-3-3η, 50 mM NH4OAc, 10 mM aniline, 1 mM DTT, pH 6.5

Molecule: CC[C@H](C)[C@H](NC(=O)[C@@H](NC(=O)[C@H](CCCNC(=N)N)NC(=O)[C@H](CCCNC(=N)N)NC(=O)[C@H](CS)NC(=O)[C@H](CC(=O)O)NC(C)=O)[C@@H](C)O)C(=O)N[C@@H](COP(=O)(O)O)C(=O)N[C@@H](C)C(=O)N1CCC[C@H]1C(=O)NCC(=O)NN [hDMX361–369^pSer367Gly-hydrazide] (HELM PEPTIDE1{[ac].D.C.R.R.T.I.[O=C([C@H](COP(=O)(O)O)N[*:1])[*:2]].A.P.G.[NN[*:1]]}$$$$V2.0)
IC50 [1, 7]: 8.2 ± 1.3 µM

Molecule: CC[C@H](C)[C@H](NC(=O)[C@@H](NC(=O)[C@H](CCCNC(=N)N)NC(=O)[C@H](CCCNC(=N)N)NC(=O)[C@H](CS)NC(=O)[C@H](CC(=O)O)NC(C)=O)[C@@H](C)O)C(=O)N[C@@H](COP(=O)(O)O)C(=O)N[C@@H](C)C(=O)N1CCC[C@H]1C(=O)NCC(=O)N/N=C/c1cc(Br)cc([N+](=O)[O-])c1 [hDMX361–369^pSer367Gly-hydrazone-FC45] (HELM PEPTIDE1{[ac].D.C.R.R.T.I.[O=C([C@H](COP(=O)(O)O)N[*:1])[*:2]].A.P.G.[O=[N+]([O-])c1cc(Br)cc(/C=N/N[*:1])c1]}$$$$V2.0)
IC50 [1, 7]: 10.4 ± 0.3 µM

The next lines start with the values.

IC50 ([1]; Fig. 3b experiment, 1 μM 14-3-3η in 50 mM NH4OAc, 10 mM aniline and 1 mM DTT): 8.5 ± 1.6 µM
Molecule: CC[C@H](C)[C@H](NC(=O)[C@@H](NC(=O)[C@H](CCCNC(=N)N)NC(=O)[C@H](CCCNC(=N)N)NC(=O)[C@H](CS)NC(=O)[C@H](CC(=O)O)NC(C)=O)[C@@H](C)O)C(=O)N[C@@H](COP(=O)(O)O)C(=O)N[C@@H](C)C(=O)N1CCC[C@H]1C(=O)N[C@H](C(=O)NCC(=O)NN)C(C)C [hDMX361–370^pSer367Gly-hydrazide] (HELM PEPTIDE1{[ac].D.C.R.R.T.I.[O=C([C@H](COP(=O)(O)O)N[*:1])[*:2]].A.P.V.G.[NN[*:1]]}$$$$V2.0)

Kd [2]: 0.172 µM
IC50 [3]: 13.7 µM
IC50 [4]: 10.4 µM
IC50 [5]: 8.2 µM
IC50 [6]: 8.5 µM
B1: 14-3-3η (protein)
chain: GDREQLLQRARLAEQAERYDDMASAMKAVTELNEPLSNEDRNLLSVAYKNVVGARRSSWRVISSIEQKTMADGNEKKLEKVKAYREKIEKELETVCNDVLSLLDKFLIKNCNDFQYESKVFYLKMKGDYYRYLAEVASGEKKNSVVEASEAAYKEAFEISKEQMQPTHPIRLGLALNFSVFYYEIQNAPEQACLLAKQAFDDAIAELDTLNEDSYKDSTLIMQLLRDNLTLWTSDQQDEEAGEGN
